Assay results published in IntAct's records for PubMed 11846417.

Legend:
actn2_human ACTN2 = actn2_human ACTN2 (UniProt P35609)
telt_human TCAP = telt_human TCAP (UniProt O15273)
Chain of telt_human TCAP (O15273 whole entry): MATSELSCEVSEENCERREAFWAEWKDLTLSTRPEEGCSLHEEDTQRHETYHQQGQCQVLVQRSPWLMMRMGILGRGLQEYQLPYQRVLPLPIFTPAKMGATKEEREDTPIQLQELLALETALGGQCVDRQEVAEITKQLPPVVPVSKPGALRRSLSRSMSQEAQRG

Chain of actn2_human ACTN2 (P35609 whole entry): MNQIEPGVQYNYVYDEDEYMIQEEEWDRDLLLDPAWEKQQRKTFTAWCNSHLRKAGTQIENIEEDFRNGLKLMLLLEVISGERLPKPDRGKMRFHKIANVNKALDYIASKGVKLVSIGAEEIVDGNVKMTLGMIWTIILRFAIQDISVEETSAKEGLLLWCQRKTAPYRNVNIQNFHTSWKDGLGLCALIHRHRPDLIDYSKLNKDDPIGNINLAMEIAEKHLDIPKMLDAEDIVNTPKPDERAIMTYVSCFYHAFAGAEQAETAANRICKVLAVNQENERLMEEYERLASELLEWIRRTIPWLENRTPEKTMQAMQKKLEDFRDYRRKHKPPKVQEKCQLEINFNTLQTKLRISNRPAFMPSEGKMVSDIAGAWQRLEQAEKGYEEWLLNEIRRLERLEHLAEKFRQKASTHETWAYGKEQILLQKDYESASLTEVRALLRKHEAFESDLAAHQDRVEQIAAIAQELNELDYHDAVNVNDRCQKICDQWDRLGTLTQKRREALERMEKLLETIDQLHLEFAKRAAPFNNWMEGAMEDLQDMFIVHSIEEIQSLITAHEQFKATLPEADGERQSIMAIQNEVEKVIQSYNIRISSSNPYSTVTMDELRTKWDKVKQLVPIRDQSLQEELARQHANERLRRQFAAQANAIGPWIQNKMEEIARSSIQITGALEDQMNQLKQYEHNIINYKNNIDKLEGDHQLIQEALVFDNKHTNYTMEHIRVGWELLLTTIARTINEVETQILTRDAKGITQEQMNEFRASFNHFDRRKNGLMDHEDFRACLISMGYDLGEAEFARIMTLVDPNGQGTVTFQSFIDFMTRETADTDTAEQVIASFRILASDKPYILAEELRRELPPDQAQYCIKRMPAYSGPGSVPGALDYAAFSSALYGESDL

Row | effect of a mutation on the interaction (actn2_human ACTN2) | effect of a mutation on the interaction (telt_human TCAP) | Substance
1 | decreasing interaction | – | Titin (Homo sapiens), Q8WZ42 A743V
2 | – | decreasing interaction | Titin (Homo sapiens), Q8WZ42 V54M
